# Data: a protein production outcome set (Wang et al. 2014)
# Test: label from the status in PepcDB records
# 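Further: failed if final PepcDB status was selected cloned or expressed and not failed if soluble or beyond.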
row,Sequence,protein production
1,MPEMADVMQTQAGDAGAFRHFDLSRVPTPCFVVDEVAIERNLKILRDISDRSGAHVLSALKAFSMFTLAPLVRQYLGGTCASGIYEARLGREEYGGEVATFCAGYKEQDIDEILSLSNHIIFNSPAQKDRFLSRAQAAGVQVGLRINPEHSEGEIAKYDPCAPCSRLGTPVSLLTPETLKGVDGLHMHTLCEQGFEPLLRTWAAVEPKLAPYLPGLKWLNFGGGHHITRADYDRDALIDFLKSLRARHGLDVYLEPGEAVALDAGILVGEILDLPSNGMDLAITDISATCHMPDVIEAPYRPALMDEADSGHTYRLGGPSCLAGDVIGDYTWDQPLTIGQRFAFLDQAHYSMVKTNTFNGVPLPTIALWNSKTDALRIVRQFDYSDFKDRLS,not failed
2,MTEKEKMLAEKWYDANFDQYLINERARAKDICFELNHTRPSATNKRKELIDQLFQTTTDNVSISIPFDTDYGWNVKLGKNVYVNTNCYFMDGGQITIGDNVFIGPNCGFYTATHPLNFHHRNEGFEKAGPIHIGSNTWFGGHVAVLPGVTIGEGSVIGAGSVVTKDIPPHSLAVGNPCKVVRKIDNDLPSETLNDETIK,not failed
3,MEDKTLGLLLDVVGELFSDEISIAVSNTKEYIYYRPSKRIDLKISAGDPIKEGTIAHKAMVTNQKTSEFMNRDVFGIPYHGMAVPFSNNGKLEGCVTAIYPALTDGKSVVTLKTTDGWIPVPFSKVMYLEAKDKKTYVNAEELTGTHKYSLQEFEYLLPKDSFIRCHRSFIVNVNHIKAIYPDTHSTFLLSMDNGERVPVSQSYASYFRKLLGF,not failed
4,MDDLTNLAARLRLLEDREEIRELIARYGPLADSGDAEALSELWVEDGEYAVVGFATAKGRAAIAALIDGQTHRALMADGCAHFLGPATVTVEGDTATARCHSVVFRCVSGTFGSHRVSANRWTFRRTPAGWRAVRRENALLDGSAAARALLQFR,not failed
5,MNIFEQTPPNRRRYGLAAFIGLIAGVVSAFVKWGAEVPLPPRSPVDMFNAACGPESLIRAAGQIDCSRNFLNPPYIFLRDWLGLTDPNAAVYTFAGHVFNWVGVTHIIFSIVFAVGYCVVAEVFPKIKLWQGLLAGALAQLFVHMISFPLMGLTPPLFDLPWYENVSEIFGHLVWFWSIEIIRRDLRNRITHEPDPEIPLGSNR,failed
6,MSSNMQQTINVWDPLIRIFHWSLVGFFTLAYLTEGEDEWMNIHSYAGYSILTLLVFRLLWGVIGTHHARFNHFITRPSIAWTYLKQLFSGNAKDYIGHNPAGALMIIALITSIAVAGFSGMALYATDSQGPLATSFFATWPEGALKEVHEFFANFSLFLIATHIGGVIVSSLLHKENLIRAMVTGKKQRPLIQQDERQ,failed
7,MEKEIKEKNLPLELTLVEASPRVGGKIQTVKKDGYIIERGPDSFLERKKSAPQLVKDLGLEHLLVNNATGQSYVLVNRTLHPMPKGAVMGIPTKIAPFVSTGLFSLSGKARAAMDFILPASKTKDDQSLGEFFRRRVGDEVVENLIEPLLSGIYAGDIDKLSLMSTFPQFYQTEQKHRSLILGMKKTRPQGSGQQLTAKKQGQFQTLSTGLQTLVEEIEKQLKLTKVYKGTKVTKLSHSGSCYSLELDNGVTLDADSVIVTAPHKAAAGMLSELPAISHLKNMHSTSVANVALGFPEGSVQMEHEGTGFVISRNSDFAITACTWTNKKWPHAAPEGKTLLRAYVGKAGDESIVDLSDNDIINIVLEDLKKVMNINGEPEMTCVTRWHESMPQYHVGHKQRIKELREALASAYPGVYMTGASFEGVGIPDCIDQGKAAVSDALTYLFS,failed
8,MAKVNITRDLIRRQIKERGALSFERRYHVTDPFIRRLGLEAELQGHSGCVNCLEWNEKGDLLASGSDDQHTIVWDPLHHKKLLSMHTGHTANIFSVKFLPHAGDRILITGAADSKVHVHDLTVKETIHMFGDHTNRVKRIATAPMWPNTFWSAAEDGLIRQYDLRENSKHSEVLIDLTEYCGQLVEAKCLTVNPQDNNCLAVGASGPFVRLYDIRMIHNHRKSMKQSPSAGVHTFCDRQKPLPDGAAQYYVAGHLPVKLPDYNNRLRVLVATYVTFSPNGTELLVNMGGEQVYLFDLTYKQRPYTFLLPRKCHSSGEVQNGKMSTNGVSNGVSNGLHLHSNGFRLPESRGHVSPQVELPPYLERVKQQANEAFACQQWTQAIQLYSKAVQRAPHNAMLYGNRAAAYMKRKWDGDHYDALRDCLKAISLNPCHLKAHFRLARCLFELKYVAEALECLDDFKGKFPEQAHSSACDALGRDITAALFSKNDGEEKKGPGGGAPVRLRSTSRKDSISEDEMVLRERSYDYQFRYCGHCNTTTDIKEANFFGSNAQYIVSGSDDGSFFIWEKETTNLVRVLQGDESIVNCLQPHPSYCFLATSGIDPVVRLWNPRPESEDLTGRVVEDMEGASQANQRRMNADPLEVMLLNMGYRITGLSSGGAGASDDEDSSEGQVQCRPS,failed
9,MKLYKLLILDIDGTLRDEVYGIPESAKHAIRLCQKNHCSVVICTGRSMGTIQDDVLSLGVDGYIAGGGNYIQYHGELLYNQSFNQRLIKEVVCLLKKREVAFSIESQEKVFMNQKAKEIFETMNQLKGTNSCINKQHIQEKITYENNIEEYKSQDIHKICLWSNEKVFDEVKDILQDKMELAQRDISSQYYEIIQKDFHKGKAIKRLQERLGVTQKETICFGDGQNDIVMFQASDVTIAMKNSHQQLKDIATSICEDIFDNGIYKELKRRNII,not failed
10,MSVAETEIPIPAATPSLTDACVHCGFCLSDCPSYRVLGRETDSPRGRVYLMDSLQQGRIELSDTVVEHFDTCLGCLACTSACPSGVQYDQLIEEMRQRIAQEHRRPWPEAIWRKLLFAFLPYPERLRPILRLGQLYQSSGLQNWLNRQPLLQKFPQLAAASALLPPLSPASFQDNWPTLLPALGDRRYRVGLLLGCVQRLFNPEVNAAAIRVLRANGCDVVIPPQQGCCGAVAHHQGEMQQAQDLARAVIRSFEAENLDAILVTASGCGHTLKHYGAILADDPEWCDRAQQLADRVQDVQEFLATVGLTTPLHPLQEQPLVVVYQDACHMLHGQKIRNQPRQLLQQIPGIELREPVDAQLCCGSAGIYNLLQPAIAAELGQQKARSLAETGAQMIASANIGCYVQIRHHLQAQSKDLPVLHPLQIIDRAMNFQNH,failed
11,MIFYKSKRLAFFLTSDIVLILLSVYLAFSLRFSGDIPSIFYHGMMVSAIILLVLKLSFLFVFRIYKVAWRFFSLNEARKIFIALLLAEFCFFLIFYFFSDFFNPFPRSAIVIDFVLSYMFIGTLRISKRMLVDFKPSRMKEEETPCIVVGATSKALHLLKGAKEGSLGLFPVGVVDARKELIGTYCDKFIVEEKEKIKSYVEQGVKTAIIALRLEQEELKKLFEELVAYGICDVKIFSFTRNEARDISIEDLLARKPKDLDDSAVAAFLKDKVVLVSGAGGTIGSELCKQCIKFGAKHLIMVDHSEYNLYKINDDLNLYKEKITPILLSILDKQSLDEVLKTYKPELILHAAAYKHVPLCEQNPHSAVINNILGTKILCDSAKENKVAKFVMISTDKAVRPTNIMGCTKRVCELYTLSMSDENFEVACVRFGNVLGSSGSVIPKFKAQIANNEPLTLTHPDIVRYFMLVAEAVQLVLQAGAIAKGGELFVLDMGKPVKIIDLAKKMLLLSNRNDLEIKITGLRKGEKLYEELLIDENDAKTQYESIFVAKNEKVDLDWLNKEIENLQICEDISEALLKIVPEFKHNKEGV,failed
12,MEMRKIGLIGGMSFESSAVYYRLVNEAVRRRRGKLHSAEVLLHSVDFQRIVDLQRAGHWDDAALLLSDVARGLVAGGADCILICSNTMHLIADAVHASVDVPLINIIDETALRLKAAGSRKPLLLATRYTMEQGFYAERMKTHDIDLMVPDADGRTLTHNVIFDELCAGQVLNASRSAVIGLIEKAKAEGADAVILGCTEICLLLDPADLPLPGFDSTAIHAEAAVEFSLRDRQ,failed
13,MDFVIRRATAEEYDTLGEITAQAYLRDGLLDFGESDSYLDELRDVAKRAAAAEVLVAVADDAVLGGATFVPSGGPMADIARPGEAEIRMLAVAREARGRGAGEALVRACADRARAVPGCTGVVLSTQAAMRTAHRLYERLGFVRTPDRDWNPLPELDDIMLLTYELTL,failed
14,MFEISRSRAKAMRPFLALATATVMMLSLAACSSSDNSSTNAQGNTDVAVGGQRFSTADQETAKLGSDAQPGQFPRTVVHAAGTTEITTKPERVVVLDTGELDSVLSLGITPVGMTTTKGANPVPSYLADKVKDVERVGTINELNIEAIAALKPDLIIGSQLRADKLYPQLSDIAPTVFSIRPGSPWKENFLLVGEALGMEKEAEEKLNEYADRVAELKNNVPQNTEVSLVRFMPNKLRLYGNKSLIGVVLADAGLARPEKQNVDDLAVEISPENIDQAAGSVIFYTSYGKPDATGETAVVEGPAWKNLEAVAAGKAHRVNDDVWFLGLGPTGAMEIVSDLHDYLLKK,failed
15,EPTFVVAQIKEIIDHPDSDHLHICQAEINDGKTVQIVCGAPNASVGLKTVAALPGAMMPNGSLIFPGKLRGEDSFGMLCSARELALPNAPQVRGIIELSDQVIVGESFDANK,failed
16,MIINDPVKITGIVDILIIIIFTSLGFRGFLRGFIKEISGFAEVFVLILLLYKKTEEFRRFVEPIIELSYIQALLVFFLLIHIGFLILQSLIESIISQLKLLFFNRILGLVLGLLEAFGIIAIVVYIIHSQQIFKPEYFLKESKLLDYLNPGINYLFKISKTK,failed
17,MVKTMSEVNFNSKAFTYADNALVQKSASEVLLNLLSIQPEEDVLDIGCGPGHITKKIAKITNGSVQGIDVSQGMIEQAISSNKDLPNLKYSVMDAENLELNTKFDVIVCNSCFQWFQKPDQVLMRCFNVLKEGGRIGIQAPATQSYCPNFISAIEKIRMHPYTREVFNHFKSPWFFFDSKDEYEQLFRNHGFDIIYSELREESNLFSVEQAYKIYQSGAENGYLNQSYYTVTLTDNYISTFRELVKEALQEQADNSGMINLKFERIYLVAKKQ,failed
18,MAISKALIASLLISLLVLQLVQADVENSQKKNGYAKKIGFRGGRGCVTERAGLAATGATVCLRVRTETTTSASATLASPPTVDAASAHKKKQSS,failed
19,MQTIIRVEKLAKTFNQHQALHAVDLNIHHGEMVALLGPSGSGKSTLLRHLSGLITGDKSVGSHIELLGRTVQREGRLARDIRKSRAHTGYIFQQFNLVNRLSVLENVLIGALGSTPFWRTCFSWFTGEQKQRALQALTRVGMVHFAHQRVSTLSGGQQQRVAIARALMQQAKVILADEPIASLDPESARIVMDTLRDINQNDGITVVVTLHQVDYALRYCERIVALRQGHVFYDGSSQQFDNERFDHLYRSINRVEENAKAA,failed
20,MAGGTKRLPRAVREQQMLDAAVDVFSDRGFHETSMDAIAAKAEISKPMLYLYYGSKDELFAACIQREGLRFVEALAPAGDPGLSPREQLRRALEGFLGFVGKHRKSWMVLYRQAMGQQAFVGSVQSSRDRLIELTAHLLESSTKDPEPGQDFELIAIALVGAGEAVADRVAGGEIEVDAAADLLESLAWRGLAGKKKPE,not failed
21,MAETLITKPPLSLSFTSLSSMLPSLSLSTANRHLSVTDTIPLPNSNSNATPPLRIAIIGFGNYGQFLAETLISQGHILFAHSRSDHSSAARRLGVSYFTDLHDLCERHPDVVLLCTSILSIENILKTLPFQRLRRNTLFVDVLSVKEFAKTLLLQYLPEDFDILCTHPMFGPQSVSSNHGWRGLRFVYDKVRIGEERLRVSRCESFLEIFVREGCEMVEMSVTDHDKFAAESQFITHTLGRLLGMLKLISTPINTKGYEALLDLAENICGDSFDLYYGLFVYNNNSLEVLERIDLAFEALRKELFSRLHGVVRKQSFEGEAKKVHVFPNCGENDASLDMMRSEDVVVKYEYNSQVSGSVNDGSRLKIGIVGFGNFGQFLGKTMVKQGHTVLAYSRSDYTDEAAKLGVSYFSDLDDLFEEHPEVIILCTSILSTEKVLESLPFQRLKRSTLFVDVLSVKEFPRNLFLQTLPQDFDILCTHPMFGPESGKNGWNNLAFVFDKVRIGMDDRRKSRCNSFLDIFAREGCRMVEMSCAEHDWHAAGSQFITHTVGRLLEKLSLESTPIDTKGYETLLKLVENTAGDSFDLYYGLFLYNPNAMEQLERFHVAFESLKTQLFGRLHSQHSHELAKSSSPKTTKLLTS,failed
22,PVGWQCPGCTFINKPTRPGCEMCCRARPEAYQVPASYQP,not failed
